What is called stoichiometry N is a count of units in the complex or per binding partner.

Consider 14 molecules from article PMC6297230, “Structural basis of meiotic telomere attachment to the nuclear envelope by MAJIN-TERB2-TERB1” (Nature Communications, 2018).

B5: TRF homology domain of TRF1 (amino acids 62–268) (domain or fragment, human, UniProt P54274 62-268, looked up)
chain: EDAGLVAEAEAVAAGWMLDFLCLSLCRAFRDGRSEDFRRTRNSAEAIIHGLSSLTACQLRTIYICQFLTRIAAGKTLDAQFENDERITPLESALMIWGSIEKEHDKLHEEIQNLIKIQAIAVCMENGNFKEAEEVFERIFGDPNSHMPFKSKLLMIISQKDTFHSFFQHFSYNHMMEKIKSYVNYVLSEKSSTFLMKAAAKVVESKR
notes: Dimer by SEC-MALS; also called TRF1_(TRFH); source: E. coli BL21 (DE3), purified (Ni-NTA, amylose, ion exchange, SEC; 10% glycerol, room temperature)
B6: TERB2 N-terminal end (amino acids 1–107) (domain or fragment, human, UniProt Q8NHR7 1-107, looked up)
chain: MFQGQRGWFCGSVSQDLRQFWVAEGGTISDPRAADFLFSCDASHPDTLRIYQSLDYIEDNATVFHAYYLSAVANAKIKNSVALGHFILPPACLQKEIRRKIGSFIWE
notes: Forms large aggregates in isolation; source: E. coli BL21 (DE3), co-expressed with TERB1, purified (Ni-NTA, amylose, ion exchange, SEC)
B7: TERB1 TRF1-binding domain (amino acids 561–658) (domain or fragment, human, UniProt Q8NA31 561-658, looked up)
chain: TDPFTLCSDIINKEVVSFLATPSCSEMLTYRCSGCIAVEKSLNSRNFSKLLHSCPYQCDRHKVIVEAEDRYKSELRKSLICNKKILLTPRRRQRLSNE
notes: human TERB1, canonical isoform Q8NA31, amino acids 561-658; The discussion prints 568–658 once for TRFB; also called TERB1_(TRFB); TRFB; source: E. coli BL21 (DE3), co-expressed with TRF1 TRFH and/or TERB2, purified (Ni-NTA, amylose, ion exchange, SEC)

In one data set the target is TERB1 TBM (Homo sapiens) (UniProt Q8NA31). Conditions: cited from earlier work.
In data set [1] the target is GST-TERB1 TBM (Homo sapiens) (UniProt Q8NA31). Particulars: cited from earlier work.
Data set [2] has as its target MAJIN N-terminal structural core (amino acids 1–112) (human). In words: SEC-MALS; purified (co-expressed) samples at > 1 mg/ml on Superdex 200 Increase 10/300 GL in 20 mM Tris pH 8.0, 250 mM KCl, 2 mM DTT. In general terms: Size exclusion chromatography separates by hydrodynamic size, large species first.
The target of data set [3] is TRF homology domain of TRF1 (amino acids 62–268) (human) (UniProt P54274). Briefly: SEC-MALS; relative binding affinities estimated from dissociation of TRF1 TRFH–TERB1 complexes upon serial dilution (Supplementary Fig. 13a–d).
Data set [4] addresses MAJIN core, truncated (amino acids 1–106) (human). In words: SEC-MALS; purified (co-expressed) samples at > 1 mg/ml on Superdex 200 Increase 10/300 GL in 20 mM Tris pH 8.0, 250 mM KCl, 2 mM DTT.
The target of data set [5] is MAJIN N-terminal structural core (amino acids 1–112) (human). Described as above. The source holds these as a separate data set.
Target sequence in this assay (Q3KP22 1-112): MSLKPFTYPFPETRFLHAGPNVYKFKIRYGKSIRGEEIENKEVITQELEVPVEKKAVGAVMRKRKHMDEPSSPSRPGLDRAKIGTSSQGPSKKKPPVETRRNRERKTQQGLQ
The target in data set [6] is MAJIN core, truncated (amino acids 1–106) (human). Described as above. The source holds these as a separate data set.
Data set [7] deals with MAJIN core (amino acids 1–112) F73E Y75E (human). The data set is described as above.
Data set [8] concerns the target MAJIN core (amino acids 1–112) K24M K26E R28E K31D R34E R81D (human). The description is as above.
For data set [9], the target named is T1, full length TERB2 (1–220) (human, UniProt Q8NHR7 1-220).
T1 construct: human TERB2, canonical isoform Q8NHR7, full length, amino acids 1-220; source: E. coli BL21 (DE3), co-expressed with MAJIN and TERB1, purified (Ni-NTA, amylose, ion exchange, SEC)
T1 sequence (looked up): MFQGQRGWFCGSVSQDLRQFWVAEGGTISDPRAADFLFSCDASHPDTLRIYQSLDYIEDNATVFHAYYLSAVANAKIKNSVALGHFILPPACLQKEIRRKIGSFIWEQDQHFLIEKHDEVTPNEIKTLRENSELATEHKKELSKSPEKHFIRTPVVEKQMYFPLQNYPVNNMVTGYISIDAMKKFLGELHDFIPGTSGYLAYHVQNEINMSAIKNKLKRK
The data set is described as above. Conditions: both partners purified.

The target in data set [10] is B6. The description is as above. Particulars: both partners purified.
In data set [11] the target is MAJIN_(Core+BP1)-TERB2–TERB1_(TRFB) complex (1–147, 1–220, 561–658) (human) (UniProt Q8NHR7). Briefly: SEC-MALS; complex reconstituted by adding TRF1 TRFH to purified MAJIN–TERB2–TERB1(TRFB) (Supplementary Fig. 12c). Conditions: scale: TRF1 TRFH chains per 2:2:2 MAJIN–TERB2–TERB1 complex.
Data set [12] concerns the molecule itself. In words: SEC-MALS; purified (co-expressed) samples at > 1 mg/ml on Superdex 200 Increase 10/300 GL in 20 mM Tris pH 8.0, 250 mM KCl, 2 mM DTT.
Data set [13] deals with B7. The data set is described as above. Conditions: both partners purified.
Data set [14] concerns the target B5. The description is as above. Particulars: both partners purified.
Another data set deals with T2, His6–TRF1_(TRFH) (human, UniProt P54274 62-268).
T2 construct: source: E. coli BL21 (DE3), co-purified with MBP–TERB1 fusions
T2 sequence (looked up): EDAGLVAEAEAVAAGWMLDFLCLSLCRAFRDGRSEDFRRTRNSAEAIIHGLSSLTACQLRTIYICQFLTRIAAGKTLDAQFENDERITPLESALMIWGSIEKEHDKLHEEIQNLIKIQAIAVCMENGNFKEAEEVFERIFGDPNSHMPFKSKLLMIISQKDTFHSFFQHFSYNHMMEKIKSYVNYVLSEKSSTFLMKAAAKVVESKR
Briefly: SEC-MALS; co-purified His6–TRF1 TRFH complexes with MBP–TERB1 TRFB (9 µM) or MBP–TERB1 TBM (130 µM) incubated with 9 µM phosphorylated CDK1-CyclinB in 40 mM Tris pH 7.5, 250 mM KCl, 20 mM MgCl2, 2 mM ATP, 10 mM DTT, 10 min at 30 °C and 50 min at 22 °C; also SDS–PAGE with ProQ-Diamond. Conditions: both partners purified.

The target in data set [15] is B5. Briefly: SEC-MALS; relative binding affinities estimated from dissociation of TRF1 TRFH–TERB1 complexes upon serial dilution (Supplementary Fig. 13a–d). Particulars: both partners purified.
For another data set, the target named is TRF1 full length (human, UniProt P54274 1-439). In words: EMSA; apparent, Hill fit; EMSA: 20 mM Tris pH 8.0, 250 mM KCl, 1 h at 4 °C, 3% glycerol, 0.5% agarose in 0.5x TBE; 25 nM FAM-DNA for Kd (protein as oligomer), 0.3 uM DNA for display. Conditions: protein: recombinant; tags: tag removed (TEV); chain copies: 2; label: 5' 6-FAM; blunt.
TRF1 full length, sequence (P54274 whole entry): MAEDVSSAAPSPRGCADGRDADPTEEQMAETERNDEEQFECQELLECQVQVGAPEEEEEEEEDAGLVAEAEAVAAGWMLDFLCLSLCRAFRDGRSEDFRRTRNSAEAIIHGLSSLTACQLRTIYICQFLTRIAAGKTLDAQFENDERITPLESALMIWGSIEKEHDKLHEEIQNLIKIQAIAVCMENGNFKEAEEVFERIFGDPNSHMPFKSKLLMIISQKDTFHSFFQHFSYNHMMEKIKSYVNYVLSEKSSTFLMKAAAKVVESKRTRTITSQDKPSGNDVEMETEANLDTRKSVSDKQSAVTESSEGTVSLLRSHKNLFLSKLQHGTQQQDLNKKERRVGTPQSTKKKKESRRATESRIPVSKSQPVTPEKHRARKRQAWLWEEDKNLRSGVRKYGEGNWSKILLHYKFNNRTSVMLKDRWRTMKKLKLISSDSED

Values joined by “and” are separate entries in the source; they are usually repeats but may differ in a detail not shown here. Identical values can stand only once.

TRF1 TRFH (from UniProt P54274): the Kd was 5600 nM with TERB1 TBM (Homo sapiens) and 75 nM in [1]. Regarding “MAJIN N-terminal structural core (amino acids 1–112) (domain or fragment)”, in data set [2], the stoichiometry N (MAJIN chains in the 2:2:2 complex) came out at 2 and the stoichiometry N (MAJIN chains in the 2:2 complex) was 2. Consider “TERB1TBM (amino acids 642–658) (from UniProt Q8NA31 642-658) (peptide)”, for which the fold weaker binding than TERB1 TRFB in data set [3] is > 100 fold. On to “MAJIN core, truncated (amino acids 1–106) (domain or fragment)”, for which, in [4], the stoichiometry N (MAJIN chains in the 2:2 complex) was found to be 2.

B1: full length TERB2 (1–220) (natural protein)
chain: MFQGQRGWFCGSVSQDLRQFWVAEGGTISDPRAADFLFSCDASHPDTLRIYQSLDYIEDNATVFHAYYLSAVANAKIKNSVALGHFILPPACLQKEIRRKIGSFIWEQDQHFLIEKHDEVTPNEIKTLRENSELATEHKKELSKSPEKHFIRTPVVEKQMYFPLQNYPVNNMVTGYISIDAMKKFLGELHDFIPGTSGYLAYHVQNEINMSAIKNKLKRK
For the molecule B1, the stoichiometry N (binder chains per target chain (2:2:2)) in data set [5] was found to be 1.

B2: TERB2 C-terminus, truncated (amino acids 168–207) (domain or fragment)
chain: PVNNMVTGYISIDAMKKFLGELHDFIPGTSGYLAYHVQNE
B2 came in with a stoichiometry N (binder chains per target chain (2:2)) in data set [6] of 1.

B3: TERB2 C-terminus (amino acids 168–220) (domain or fragment)
chain: PVNNMVTGYISIDAMKKFLGELHDFIPGTSGYLAYHVQNEINMSAIKNKLKRK
As to B3, the stoichiometry N (binder chains per target chain (2:2)) in data set [5] was determined as 1. Also, the stoichiometry N (binder chains per target chain (1:1)) in data set [7] and in data set [8] was 1 throughout.

B4: TERB1 TERB2-binding site (amino acids 585–642) (domain or fragment, human, UniProt Q8NA31 585-642, looked up)
chain: SEMLTYRCSGCIAVEKSLNSRNFSKLLHSCPYQCDRHKVIVEAEDRYKSELRKSLICN
notes: human TERB1, canonical isoform Q8NA31, amino acids 585-642; Forms large aggregates in isolation; also called TERB1T2B; T2B; source: E. coli BL21 (DE3), co-expressed with TERB2, purified (Ni-NTA, amylose, ion exchange, SEC)
As to B4, the “stoichiometry N” value in data set [9] was 1 binder chains per target chain (2:2:2); in [10], 1 binder chains per target chain (1:1). For B5, the stoichiometry N in [11] stood at 4; in data set [12], 2 chains in the oligomer. Consider B6, for which the “stoichiometry N” value in data set [13] was 1 binder chains per target chain (2:1:1 TRF1:TERB1:TERB2). On to B7, for which the “stoichiometry N” value in data set [14] was 0.5 binder chains per target chain (2:1 TRF1:TERB1) and 0.5 binder chains per target chain (2:1:1 TRF1:TERB1:TERB2).

B8: MBP–TERB1_(TRFB) partially phosphorylated by CDK1-CyclinB (domain or fragment, human, UniProt Q8NA31 561-658, looked up)
chain: TDPFTLCSDIINKEVVSFLATPSCSEMLTYRCSGCIAVEKSLNSRNFSKLLHSCPYQCDRHKVIVEAEDRYKSELRKSLICNKKILLTPRRRQRLSNE
modifications: only partially phosphorylated by CDK1-CyclinB (residue not named for this experiment)
notes: human TERB1, canonical isoform Q8NA31, amino acids 561-658; source: E. coli BL21 (DE3), co-purified with His6–TRF1 TRFH, then incubated with phosphorylated CDK1-CyclinB and ATP
For B8, the “stoichiometry N” value in the data set with His6–TRF1_(TRFH) was 0.5 binder chains per target chain (2:1 TRF1:TERB1).

B9: TERB1 TRF1-binding domain (amino acids 561–658) T648E (domain or fragment, human, UniProt Q8NA31 561-658, looked up)
chain: TDPFTLCSDIINKEVVSFLATPSCSEMLTYRCSGCIAVEKSLNSRNFSKLLHSCPYQCDRHKVIVEAEDRYKSELRKSLICNKKILLEPRRRQRLSNE
notes: human TERB1, canonical isoform Q8NA31, amino acids 561-658, phosphomimetic T648E; it may be an MBP fusion as in the phosphorylation assays; also called TERB1_(TRFB) T648E; source: E. coli BL21 (DE3), purified
As for B9, the “fold higher affinity than wild-type TERB1 TBM” value in [15] is ≥ 10 fold.

B10: FAM random dsDNA (145 bp) (dsDNA)
DNA 1: TTCCAGGGTTCCATGGAGATAAAGGTCAATAAATTAGAGTTAGAACTAGAAAGTGCCAAACAGAAATTTGGAGAAATCACAGACACCTATCAGAAAGAAATTGAGGACAAAAAGATATCAGAATAATAACCATGGATATCGAATT
DNA 2: AATTCGATATCCATGGTTATTATTCTGATATCTTTTTGTCCTCAATTTCTTTCTGATAGGTGTCTGTGATTTCTCCAAATTTCTGTTTGGCACTTTCTAGTTCTAACTCTAATTTATTGACCTTTATCTCCATGGAACCCTGGAA
As for B10, in the data set with TRF1 full length, the Kd is 100 nM.
